The target in test [1] is mouse CRF receptor, type 2β (mCRFR2β) (mouse) (UniProt Q60748). The test is described as follows: displacement of [125I-Tyr0]Svg from HEK-mCRFR2β membranes. (In a radioligand displacement assay an active substance lowers the binding of a labelled ligand.)
For test [2] the target is unchanged. The test is described as follows: Kd(rCRFR1)/Kd(mCRFR2β) of the peptide normalised to that of astressin; radioligand displacement.
The target of test [3] is T1, rat CRF receptor, type 1 (rCRFR1) (rat, UniProt P35353 24-415).
T1 sequence (looked up): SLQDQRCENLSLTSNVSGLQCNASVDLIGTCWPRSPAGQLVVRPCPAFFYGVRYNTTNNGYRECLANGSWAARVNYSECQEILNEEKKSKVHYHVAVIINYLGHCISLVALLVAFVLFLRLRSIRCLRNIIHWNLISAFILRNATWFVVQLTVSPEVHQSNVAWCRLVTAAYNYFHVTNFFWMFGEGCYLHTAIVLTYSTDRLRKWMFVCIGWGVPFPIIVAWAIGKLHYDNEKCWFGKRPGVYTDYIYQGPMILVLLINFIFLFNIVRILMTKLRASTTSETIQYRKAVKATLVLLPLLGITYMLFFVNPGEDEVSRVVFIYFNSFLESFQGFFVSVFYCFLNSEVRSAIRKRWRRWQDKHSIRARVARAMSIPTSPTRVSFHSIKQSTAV
The test can be described thus: cell-based or functional assay.

The target of test [4] is T1, rat CRF receptor, type 1 (rCRFR1). The test is described as follows: displacement of [125I-Tyr0]oCRF from HEK-rCRFR1 membranes. How it is done:
(§1) Binding assays were performed in 96-well MultiScreen plates (Millipore, Eschborn, Germany) with GF/B filters (pore size 1.0 μm). […] After incubation (60 min, 23° C.), membrane suspension was aspirated through the plate, followed by two washes with assay buffer (0.2 ml, 23°). Radioactivity of the punched filters was measured with a 1470 WIZARD automatic gamma counter (Berthold, Hannover). […] Statistical analysis was performed with ANOVA, and significant differences between groups were determined by post hoc comparison using the Dunn test.

Test [5] shares this target. The test is described as follows: cell-based or functional assay. The source holds these as a separate data set.
Test [6] has the same target. The test is described as follows: displacement of [125I-Tyr0]oCRF from HEK-rCRFR1 membranes. How it is done:
as §1
The source holds these as a separate data set.

Read-outs that look alike come from different tables or passages of the source. Non-standard residues stand in square brackets, D forms with d. No end group written: not given here. *: point of attachment. ATB = 4-(1-azi-2,2,2-trifluoroethyl)benzoyl, O=C(c1ccc(C2(C(F)(F)F)N=N2)cc1)*

With sauvagine (Svg) (peptide), the Kd – broadly, a measure of binding affinity in units of concentration – in test [1] turned out to be 4.5 nM. The Selectivity in test [2] came out at 0.109.
In the same order, the values of “astressin, cyclo(30-33)[DPhe^12, Nle^21,38, Glu^30, Lys^33]h/rCRF(12-41) (peptide)” are 4 nM and 1.

B1: ATB-[His^12]Svg(12-40) (peptide)
peptide: {ATB}-HLLRKMIEIEKQEKEKQQAANNRLLLDTI
modifications: ends and bridges not checked
notes: also called compound 17
B1: in test [3], the “rel. IA (relative intrinsic activity), cAMP production, HEK-rCRFR1 cells” value (“rel. IA (relative intrinsic activity)” below) was 0.15 relative, oCRF = 1.00 and the “rel. pot. (relative potency), inhibition of oCRF-stimulated cAMP production, HEK-rCRFR1 cells” value (shortened to “rel. pot. (relative potency), inhibition”) is 0.54 relative, oCRF = 1.00. This molecule came in with a Kd in test [4] of 142 nM. The same molecule showed a Selectivity in test [2] of 32.3.

B2: [Tyr^12]Svg(12-40) (peptide)
peptide: YLLRKMIEIEKQEKEKQQAANNRLLLDTI
modifications: ends and bridges not checked
notes: also called compound 20
As to B2, in test [3], the “rel. IA (relative intrinsic activity)” value is 0.06 relative, oCRF = 1.00 and the “rel. pot. (relative potency), inhibition” value was 0.9 relative, oCRF = 1.00. Besides, in test [4], the Kd is 996 nM. Further, in test [2], the Selectivity is 1.63.

B3: [DPhe^11]Svg(11-40) (peptide)
peptide: [dF]ELLRKMIEIEKQEKEKQQAANNRLLLDTI
modifications: not fully specified (C-terminus)
notes: also called compound 12
Take B3: in test [5], the “% IA (intrinsic activity), cAMP production, HEK-rCRFR1 cells” value (“% IA (intrinsic activity)” below) was 0.07 relative, oCRF = 1.00 and the “relative in vitro potency, inhibition of oCRF-stimulated cAMP production, HEK-rCRFR1 cells” value (shortened to “relative in vitro potency, inhibition”) was 0.75 relative, oCRF = 1.00. Besides, in test [3], the “rel. IA (relative intrinsic activity)” value was 0.07 relative, oCRF = 1.00 and the “rel. pot. (relative potency), inhibition” value was 0.75 relative, oCRF = 1.00. The molecule further showed a Kd in test [1] of 3.5 nM. Besides, binding in test [6] was put at a Kd of 237 nM. Moreover, the affinity in test [4], expressed as Kd, was 237 nM. In test [2], the Selectivity turned out to be 47.6.

B4: Svg(11-40) (peptide)
peptide: LELLRKMIEIEKQEKEKQQAANNRLLLDTI
modifications: not fully specified (C-terminus)
notes: also called compound 14
B4: in test [5], the “% IA (intrinsic activity)” value was 0.14 relative, oCRF = 1.00 and the “relative in vitro potency, inhibition” value is 0.76 relative, oCRF = 1.00. In test [3], the “rel. IA (relative intrinsic activity)” value was 0.14 relative, oCRF = 1.00 and the “rel. pot. (relative potency), inhibition” value is 0.76 relative, oCRF = 1.00. Moreover, the dissociation constant Kd in test [1] was 15.4 nM. The same molecule displayed a Kd in test [6] of 831 nM. For the same molecule, the Kd in test [4] came to 831 nM. Moreover, the Selectivity in test [2] turned out to be 37.9.

B5: [DLeu^11]Svg(11-40) (peptide)
peptide: [dL]ELLRKMIEIEKQEKEKQQAANNRLLLDTI
modifications: not fully specified (C-terminus)
notes: also called compound 13
With B5, in test [5], the “% IA (intrinsic activity)” value is 0.22 relative, oCRF = 1.00 and the “relative in vitro potency, inhibition” value is 0.92 relative, oCRF = 1.00. For the same molecule, in test [3], the “rel. IA (relative intrinsic activity)” value was 0.22 relative, oCRF = 1.00 and the “rel. pot. (relative potency), inhibition” value was 0.92 relative, oCRF = 1.00. In addition, the Kd in test [1] came out at 20.9 nM. Further, in test [6], the Kd worked out at 1670 nM. In test [4], the Kd was found to be 1670 nM. The molecule further displayed a Selectivity in test [2] of 56.1.

The record behind these values is patent US6846803B1, “Antagonists specific for the corticotropin-releasing factor receptor type 2 (CRFR2)” (priority 1998, dated 2005).
